Like-named read-outs stand apart in the source and are kept apart here.
Legend:
Test in all cases: SPR
[1] = target: T1, recombinant human IL-5 (human, UniProt P05113 20-134)
[2] = target: T1, recombinant human IL-5; remark: listed apart in the source
[3] = target: T1, recombinant human IL-5; remark: listed apart in the source
[4] = target: T1, recombinant human IL-5; remark: listed apart in the source
[5] = target: T1, recombinant human IL-5; remark: listed apart in the source
[6] = target: T1, recombinant human IL-5; remark: listed apart in the source
[7] = target: T1, recombinant human IL-5; remark: listed apart in the source
[8] = target: T1, recombinant human IL-5; remark: listed apart in the source
[9] = target: T1, recombinant human IL-5; remark: listed apart in the source

B1: 3A5.040 (antibody, human IgG4 S228P, lambda)
heavy: not shown
light: SYVLTQPPSVSVAPGQTARITCGGNNIGSKNVYWYQQKPGQAPVLVVHDDSDRPSGIPERFSGSNSGNTATLTISRVEVGDEADYSCQVWDSSSDHVVFGGGTKLTVLGQPKAAPSVTLFPPSSEELQANKATLVCLISDFYPGAVTVAWKADSSPVKAGVETTTPSKQSNNKYAASSYLSLTPEQWKSHRSYSCQVTHEGSTVEKTVAPTECS
B1 was tested, and the Kd [1] was 0.168 nM, the koff [1] was 0.00023 s⁻¹ and the kon [1] was 1.37e+06 M⁻¹ s⁻¹. It also gave a Kd [2] of 0.16 nM, a koff [2] of 0.000232 s⁻¹ and a kon [2] of 1.45e+06 M⁻¹ s⁻¹. The Kd [3] was 0.193 nM, the koff [3] was 0.000285 s⁻¹ and the kon [3] was 1.48e+06 M⁻¹ s⁻¹. For the same binder, the Kd [4] was 0.168 nM, the koff [4] was 0.000239 s⁻¹ and the Kd [5] was 0.174 nM. The koff [5] was 0.000252 s⁻¹, the kon [5] was 1.45e+06 M⁻¹ s⁻¹ and the Kd [6] was 0.15 nM. It also gave a koff [6] of 0.000215 s⁻¹, a kon [6] of 1.43e+06 M⁻¹ s⁻¹ and a kon [7] of 1.43e+06 M⁻¹ s⁻¹. For the same binder, the Kd [8] was 0.173 nM, the koff [8] was 0.000243 s⁻¹ and the kon [8] was 1.41e+06 M⁻¹ s⁻¹. The Kd [9] was 0.2 nM, the koff [9] was 0.000284 s⁻¹ and the kon [9] was 1.42e+06 M⁻¹ s⁻¹.

From patent publication US20180186873A1 (CEPHALON, published 2018)
